# B1: eukaryotic translation factor 5A-1 (eIF5A-1), residues 15-151 [human] / deoxyhypusine synthase, wild type, His-tagged [human] (parent complex)
# chain 1: not shown
# chain 2: MEGSLEREAPAGALAAVLKHSSTLPPESTQVRGYDFNRGVNYRALLEAFGTTGFQATNFGRAVQQVNAMIEKKLEPLSQDEDQHADLTQSRRPLTSCTIFLGYTSNLISSGIRETIRYLVQHNMVDVLVTTAGGVEEDLIKCLAPTYLGEFSLRGKELRENGINRIGNLLVPNENYCKFEDWLMPILDQMVMEQNTEGVKWTPSKMIARLGKEINNPESVYYWAQKNHIPVFSPALTDGSLGDMIFFHSYKNPGLVLDIVEDLRLINTQAIFAKCTGMIILGGGVVKHHIANANLMRNGADYAVYINTAQEFDGSDSGARPDEAVSWGKIRVDAQPVKVYADASLVFPLLVAETFAQKMDAFMHEKNED
# Variants of: B1
# Experiment: MST; read off a plot
row,EC50,Variant
1,~300 nM,chain 2 L295A
2,~45000 nM,chain 2 Y250A
3,~7000 nM,chain 2 Q83A
4,~12000 nM,chain 2 M244A

# Further lines, the variant ahead of its results:
row,Variant,EC50
1,chain 2 I271A,~50 nM
2,chain 2 N173A,~13000 nM
3,chain 2 S240A,~2000 nM
4,chain 2 F272A,~400 nM
5,chain 2 Y176A,~700 nM

# Variants of: B1
# Experiment: MST; read off a plot
# Remark: another data set of the same source
row,Variant,EC50
1,chain 2 K329A,~130 nM
2,chain 2 D243A,~500 nM
3,chain 2 E137A,~45 nM
4,chain 2 W327A,~600 nM
5,chain 2 H288A,~50 nM

# Variants of: B1
# Experiment: MST; highest eIF5A concentration of the titration, est. 6e-5 M; read off a plot
row,Variant,response
1,chain 2 F247A,~0.33 fraction bound

# — article PMC10042821 (2023)
